± gives the uncertainty stated by the source.
Test: protein stability index of a GFP-peptide fusion (yeast GPS) (PSI 1-4); higher = more stable; sorted into four equal gates, so the index is relative within each strain
Summary of the method: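 The protein stability index of a peptide was calculated by multiplying its read frequency in each gate by that gate's number and adding the products. The peptides were tiled 17-residue stretches of yeast proteins, fused downstream of GFP on a Cherry-expressing plasmid and carried in yeast as a pooled library. Mid-log cultures in leucine-free medium were sorted into four equal gates by GFP/Cherry ratio, and each gate's plasmids were PCR-amplified and Illumina-sequenced.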

| Sequence | protein stability index (doa10∆) | protein stability index (pdr5∆) | protein stability index (ubr1∆) | protein stability index (san1∆) |
| --- | --- | --- | --- | --- |
| VCDLALRFGEGASGEER [PUP2] | 2.75 ± 0.2 | 3.4 ± 0.2 | 3.1 ± 0.21 |  |
| YLAKELNLTGPKVPEDI [RPN1] | 3.26 ± 0.23 | 3.24 ± 0.27 |  | 2.38 ± 0.24 |
| DYCRILSDIETAVNGID [YGL172W/NUP49] | 3.28 ± 0.16 | 3.15 ± 0.13 | 2.71 ± 0.1 | 2.75 ± 0.17 |
| LLHETNDSFKGLITNKM [PRP8] | 3 ± 0.16 | 2.8 ± 0.071 | 3.24 ± 0.12 | 3.06 ± 0.12 |
| TAVATLLKELSKNAQFI [SMC3] | 2.88 ± 0.071 | 2.66 ± 0.052 | 2.66 ± 0.048 | 2.8 ± 0.049 |
| NTSIAQFDIQSPLYMDT [YML103C/NUP188] | 2.99 ± 0.08 | 2.89 ± 0.049 | 3.01 ± 0.058 | 2.08 ± 0.081 |
| QWSRIVLQNVFKLVSTP [MED1] | 1.4 ± 0.039 | 1.24 ± 0.043 | 1.34 ± 0.038 | 1.23 ± 0.08 |
| SRNGDFPRTRFEAQIDS [RPN10] | 3.09 ± 0.12 | 3.28 ± 0.12 | 3.23 ± 0.086 | 3.34 ± 0.077 |
| AGASPMVNTQQPIVTGT [PRE4] | 2.67 ± 0.17 | 2.67 ± 0.29 |  |  |
| PNHIPSVNPSNKPIKRM [SWP82] | 2.87 ± 0.087 | 2.96 ± 0.057 | 3.02 ± 0.042 | 2.75 ± 0.081 |
| VLEDCRHLPMYTEFIDS [ITC1] | 2.34 ± 0.1 | 2.71 ± 0.075 | 2.99 ± 0.066 | 2.77 ± 0.12 |
| KLHHDLKLCLGDHSSVP [YMR129W/POM152] | 2.83 ± 0.058 | 3.09 ± 0.054 | 2.96 ± 0.042 | 2.95 ± 0.053 |
| KSSPISNEAAKPSFSFP [YOR098C/NUP1] | 2.86 ± 0.05 | 2.93 ± 0.045 | 3 ± 0.04 | 2.96 ± 0.037 |
| SSTDIPSYTHVLISKLS [RRI1] | 2.13 ± 0.045 | 2.42 ± 0.048 | 2.35 ± 0.037 | 2.42 ± 0.049 |
| LTEAVEDGPRPFKVFLD [RPL5] | 3.03 ± 0.071 | 3.11 ± 0.061 | 3.23 ± 0.036 | 3.02 ± 0.052 |
| LLSKKHGQLKLSIQYMI [RPN5] | 1.43 ± 0.046 | 1.96 ± 0.053 | 1.65 ± 0.053 | 1.36 ± 0.094 |
| IKKKRKELFEKTFDYVS [SMC1] | 3.16 ± 0.12 | 3.07 ± 0.099 | 3.13 ± 0.084 | 3.09 ± 0.12 |
| LHPYVPSSKPQEQVYPD [SRB8] | 2.81 ± 0.24 | 2.92 ± 0.12 | 3.25 ± 0.15 | 3.08 ± 0.093 |
| TLGVVGKSEKLSLLLVE [SKI6] | 2.8 ± 0.051 | 3.04 ± 0.048 | 2.96 ± 0.049 | 3.11 ± 0.035 |

| Sequence | protein stability index (doa10∆) | protein stability index (pdr5∆) | protein stability index (ubr1∆) | protein stability index (san1∆) |
| --- | --- | --- | --- | --- |
| PLASEESLTNSNMFDNS [YGL100W/SEH1] | 3.38 ± 0.18 | 3.02 ± 0.19 | 3.29 ± 0.086 | 3.07 ± 0.12 |
| IQELEDQRDELLEQKKS [ITC1] | 3.21 ± 0.067 | 3.11 ± 0.055 | 3.31 ± 0.061 | 3.24 ± 0.045 |
| YVESDEDDTQIVTGNLV [IRR1] | 3.47 ± 0.15 | 3.47 ± 0.12 | 3.26 ± 0.076 | 3.08 ± 0.08 |
| PIFSFGKQEENGDEGDD [YOR098C/NUP1] | 3.63 ± 0.14 | 3.65 ± 0.17 | 3.32 ± 0.14 | 3.55 ± 0.096 |
| QAYEEIISSNENALIEL [YIL149C/MLP2] | 3.18 ± 0.064 | 3.07 ± 0.061 | 3.23 ± 0.042 | 2.92 ± 0.071 |
| ARRLKNRAARDRRAQRV [RPL19A] | 2.97 ± 0.14 | 3.43 ± 0.1 | 3.17 ± 0.062 | 2.57 ± 0.13 |
| SNDVLKPETPKGPIIIS [SIR2] | 3 ± 0.11 | 2.92 ± 0.077 | 2.7 ± 0.077 | 2.78 ± 0.071 |
| PYLLETYANVLIPCKYL [RPN7] | 1.32 ± 0.067 | 1.43 ± 0.063 | 1.18 ± 0.062 | 1.19 ± 0.099 |
| ELNVEKLNTFNLQTFTH [SRP72] | 2.48 ± 0.2 | 2.33 ± 0.15 | 2.42 ± 0.15 | 1.9 ± 0.13 |
| KFNNGVVIAADTRSTQG [PUP1] | 1.6 ± 0.066 | 2.4 ± 0.13 | 2.7 ± 0.095 | 2.2 ± 0.2 |
| SMLFKTSQKMTSTVNRL [MCD1] | 2.22 ± 0.073 | 2.77 ± 0.15 | 3.04 ± 0.14 | 2.33 ± 0.14 |
| AFADRLGQYVQAHTLYN [PRE10] | 2.22 ± 0.085 | 1.95 ± 0.066 | 2.03 ± 0.11 | 1.74 ± 0.12 |
| KKFVSQIQKNVDLLQFP [POP3] | 2.65 ± 0.064 | 2.23 ± 0.073 | 2.64 ± 0.053 | 3.34 ± 0.065 |
| KKEELVEIAYHKCDELI [RPO31] | 3.13 ± 0.25 | 2.96 ± 0.1 | 3.14 ± 0.093 |  |
| RNVTKGDIVRMLETAGF [SMC3] | 2.81 ± 0.099 | 3.07 ± 0.12 | 3.19 ± 0.07 | 2.76 ± 0.1 |
| VVLVSGEGERFTVDKKI [SKP1] | 3.53 ± 0.11 | 3.6 ± 0.12 | 2.97 ± 0.094 | 3.28 ± 0.075 |
| KKKVYTTPKKIKHKHKK [RPS31] | 3.38 ± 0.16 | 2.86 ± 0.2 |  |  |
| GNTVVDGEGKVDSISLH [YCG1] | 3.54 ± 0.3 | 3.53 ± 0.23 |  |  |
| QRDLYKRKEELVSTLTT [SMC2] | 2.14 ± 0.073 | 1.91 ± 0.063 | 1.82 ± 0.053 | 2.64 ± 0.071 |

Reference: the supplement of paper PMC9732359
